Where a SMILES comes first, the peptide text is derived from it. [ ]: non-standard residue; d: D form. The star is where a group is joined. Sta = CC(C)C[C@H](N)[C@@H](O)CC(=O)O; Isovaleryl = CC(C)CC(=O)*
Assays:
[1] = target: T1, Recombinant human Asp2(a) (Homo sapiens, UniProt P56817); test: β-Secretase assay with synthetic peptide substrates (RP-HPLC); assay type: biochemical
T1 construct: made in house; β-octylglucoside membrane extract purified over Mono Q and Mono S
Method: Recombinant human Asp2(a) prepared in CHO cells and purified as described in Example 11 was used to assay Asp2(a) proteolytic activity directly. Activity assays for Asp2(a) were performed using synthetic peptide substrates containing either the wild-type APP β-secretase site (SEVKM ↓DAEFR; SEQ ID NO: 64), the Swedish KM→NL mutation (SEVNL↓DAEFR; SEQ ID NO: 63), or the Aβ40 and 42 γ-secretase sites (RRGGVV↓IA↓TVIVGER; SEQ ID NO: 65). Reactions were performed in 50 mM 2-[N-morpholino]ethane-sulfonate (“Na-MES,” pH 5.5) containing 1% β-octylglucoside, […] peptide substrate, and recombinant Asp2(a) (1-5 μg protein) for various times at 37° C. The reaction products were quantified by RP-HPLC using a linear gradient from 0-70 B over 30 minutes (A=0.1% TFA in water, B=0.1% TFA/10% water/90% AcCN). The elution profile was monitored by absorbance at 214 nm. […] Percent hydrolysis of the peptide substrate was calculated by comparing the integrated peak areas for the two product peptides and the starting material derived from the absorbance at 214 nm. […]
The specificity of the protease cleavage reaction was determined by performing the β-secretase assay in the presence of 8 μM pepstatin A and the presence of a cocktail of protease inhibitors (10 μM leupeptin, 10 μM E64, and 5 mM EDTA). […]

Hu-Asp2(b) = target: T2, Hu-Asp2(b) (Homo sapiens, UniProt P56817); test: β-Secretase proteolysis assay with Hu-Asp2(b); assay type: biochemical; settings: identical assay conditions to Asp2(a)
T2 construct: made in house; host or cells: CHO-K1 transfected with pcDNA3.1(+)Hygro/Hu-Asp2(b); β-octylglucoside extract purified over Mono Q and Mono S
Method: Recombinant human Asp2(a) prepared in CHO cells and purified as described in Example 11 was used to assay Asp2(a) proteolytic activity directly. Activity assays for Asp2(a) were performed using synthetic peptide substrates containing either the wild-type APP β-secretase site (SEVKM ↓DAEFR; SEQ ID NO: 64), the Swedish KM→NL mutation (SEVNL↓DAEFR; SEQ ID NO: 63), or the Aβ40 and 42 γ-secretase sites (RRGGVV↓IA↓TVIVGER; SEQ ID NO: 65). Reactions were performed in 50 mM 2-[N-morpholino]ethane-sulfonate (“Na-MES,” pH 5.5) containing 1% β-octylglucoside, […] peptide substrate, and recombinant Asp2(a) (1-5 μg protein) for various times at 37° C. The reaction products were quantified by RP-HPLC using a linear gradient from 0-70 B over 30 minutes (A=0.1% TFA in water, B=0.1% TFA/10% water/90% AcCN). The elution profile was monitored by absorbance at 214 nm. In preliminary experiments, the two product peaks which eluted before the intact peptide substrate, were confirmed to have the sequence DAEFR (SEQ ID NO: 72)and SEVNL (SEQ.ID NO: 73) using both Edman sequencing and MADLI-TOF mass spectrometry. Percent hydrolysis of the peptide substrate was calculated by comparing the integrated peak areas for the two product peptides and the starting material derived from the absorbance at 214 nm. […]

T1 sequence (P56817 46-501): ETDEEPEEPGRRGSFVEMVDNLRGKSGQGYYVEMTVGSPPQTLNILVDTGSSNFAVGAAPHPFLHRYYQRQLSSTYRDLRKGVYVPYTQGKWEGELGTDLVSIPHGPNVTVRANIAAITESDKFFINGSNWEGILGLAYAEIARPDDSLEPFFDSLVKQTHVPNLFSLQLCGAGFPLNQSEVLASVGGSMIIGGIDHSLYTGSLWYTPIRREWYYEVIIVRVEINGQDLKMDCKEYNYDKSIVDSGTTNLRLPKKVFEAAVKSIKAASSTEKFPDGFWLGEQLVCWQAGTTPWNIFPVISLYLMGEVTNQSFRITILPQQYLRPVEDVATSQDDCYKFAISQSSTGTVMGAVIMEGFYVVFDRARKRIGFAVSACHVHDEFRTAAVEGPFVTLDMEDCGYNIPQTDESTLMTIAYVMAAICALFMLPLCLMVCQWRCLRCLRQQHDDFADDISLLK
T2 sequence (P56817 46-476 isoform P56817-2): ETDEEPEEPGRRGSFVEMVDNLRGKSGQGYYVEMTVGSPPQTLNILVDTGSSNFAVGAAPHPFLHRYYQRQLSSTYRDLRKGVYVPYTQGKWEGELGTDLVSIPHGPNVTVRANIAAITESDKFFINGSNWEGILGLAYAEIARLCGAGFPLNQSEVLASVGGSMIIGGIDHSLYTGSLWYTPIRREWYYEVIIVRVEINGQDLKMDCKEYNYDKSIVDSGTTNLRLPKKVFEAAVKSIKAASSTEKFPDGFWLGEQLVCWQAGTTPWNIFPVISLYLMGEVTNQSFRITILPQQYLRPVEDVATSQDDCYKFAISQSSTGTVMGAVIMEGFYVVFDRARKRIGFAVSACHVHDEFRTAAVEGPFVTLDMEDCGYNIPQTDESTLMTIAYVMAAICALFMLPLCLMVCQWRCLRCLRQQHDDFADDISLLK

| proteolysis relative to wild type APP peptide ([1]; after 6 hours, pH 5.5, 37° C.) | cleavage of peptide substrate (Hu-Asp2(b)) | sensitivity of proteolytic activity to inhibitor ([1]; 8 μM pepstatin A) | Compound |
| --- | --- | --- | --- |
| about 10 fold | cleaves | – | SEVNLDAEFR (OTHER INFORMATION: Description of Artificial Sequence: synthetic) [Swedigh β-secretase peptide, synthetic peptide substrate containing the Swedish KM→NL mutation of the APP β-secretase site] |
| – | – | insensitive | CC(C)CC(=O)N[C@H](C(=O)N[C@H](C(=O)N[C@@H](CC(C)C)[C@@H](O)CC(=O)N[C@@H](C)C(=O)N[C@@H](CC(C)C)[C@@H](O)CC(=O)O)C(C)C)C(C)C [pepstatin A] (Isovaleryl-VV[Sta]A[Sta]-OH) |
